Measurements as given in publication PMC7006622.

Molecular target: thrombin (UniProt P00734;P00734 328-363;364-622)
Experiment: single-molecule TIRF, transient Cy3 probe binding to switch; LOD 20 pM (not a Kd); no specific signal without thrombin; 1x PBS with oxygen scavenger system, 20 nM Cy3 probe, 25 +/- 1 C; switch immobilised on PEG/biotin-PEG streptavidin glass

B1: thrombin-responsive three-way-junction molecular switch (B4 + G13 + CP1, probed by FP1) (structured_DNA)
DNA 1: TGGGATGGTTGGTGTGGTTGGCCGTACTCTATGAGCCTCTG
DNA 2: TCAGTGGGGTTGGACGGGATGGTGCCTGACCGTGT
DNA 3: TTTTTCAGAGGCTCATAGAGTACGG
DNA 4: AAACACGGATCCCATA
B1: binds.
